According to publication PMC5995387, “Binding of EphrinA5 to RET receptor tyrosine kinase: An in vitro study” (PLoS ONE, 2018):
Values joined by “and” are separate entries in the source; they are usually repeats but may differ in a detail not shown here. Equal values may be shown once.

Experiments:
EphA3-Fc (Mus musculus) = EphA3-Fc (Mus musculus) (UniProt P29319); details: cited from earlier work
EphA4 LBD (Homo sapiens) = EphA4 LBD (Homo sapiens) (UniProt P54764); assay: SPR; details: cited from earlier work
Chain of EphA4 LBD (Homo sapiens) (P54764 30-209): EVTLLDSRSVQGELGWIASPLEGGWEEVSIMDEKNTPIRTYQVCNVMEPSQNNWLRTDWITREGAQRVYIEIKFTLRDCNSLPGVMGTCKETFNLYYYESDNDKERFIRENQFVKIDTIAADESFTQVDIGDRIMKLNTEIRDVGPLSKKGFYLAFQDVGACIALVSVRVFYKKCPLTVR

[1] = biological target: T1, zebrafish ephrinA5b extracellular domain (zefn-A5^ECD), Flag-His8-tagged (zebrafish (Danio rerio), UniProt P79728 21-204); assay: BLI; BLItz, zefn-A5^ECD (140 μM) immobilised on Ni-NTA biosensor; SEC buffer with 0.5% Tween-20; 2 min association, 3 min dissociation; Kd from plateau values, one-site total binding model; details: both partners purified
T1 construct: ephrin-A5b, zebrafish, extracellular domain, residues 21-204 of NCBI NP_571101.1; thrombin cleavage site between the tags and the protein (pK503.9 vector); also called Danio rerio efn-A5b; efn-A5b; not shown: Flag, N-terminal, kept; His8, N-terminal, kept
T1 sequence (looked up): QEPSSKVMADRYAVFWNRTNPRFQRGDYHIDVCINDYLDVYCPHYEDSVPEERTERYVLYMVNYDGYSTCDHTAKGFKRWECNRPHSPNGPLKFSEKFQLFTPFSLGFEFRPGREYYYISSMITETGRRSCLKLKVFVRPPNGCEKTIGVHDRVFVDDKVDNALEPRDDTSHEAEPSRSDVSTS

[2] = biological target: T2, zebrafish GDNF family receptor alpha 1 extracellular domain (zGFRα1^ECD), Flag-His8-tagged (zebrafish (Danio rerio), UniProt Q98TT9 31-351); assay: native gel or EMSA; Blue Native PAGE, 4-20% gradient gel, Coomassie-stained; purified proteins mixed and incubated 30 min at room temperature, run at 4 °C; zefn-A5^ECD 8 μM, molar ratio 2:1:1:1:1 (zefn-A5^ECD:zRET^ECD:zGDNF:zGFRα1^ECD:mEphA4^LBD); band of the ternary complex checked by LC-MS/MS; details: both partners purified
T2 construct: GDNF family receptor alpha 1, zebrafish, extracellular domain, residues 31-351 of NCBI NP_571805.1; not shown: Flag, N-terminal, kept; His8, N-terminal, kept
T2 sequence (looked up): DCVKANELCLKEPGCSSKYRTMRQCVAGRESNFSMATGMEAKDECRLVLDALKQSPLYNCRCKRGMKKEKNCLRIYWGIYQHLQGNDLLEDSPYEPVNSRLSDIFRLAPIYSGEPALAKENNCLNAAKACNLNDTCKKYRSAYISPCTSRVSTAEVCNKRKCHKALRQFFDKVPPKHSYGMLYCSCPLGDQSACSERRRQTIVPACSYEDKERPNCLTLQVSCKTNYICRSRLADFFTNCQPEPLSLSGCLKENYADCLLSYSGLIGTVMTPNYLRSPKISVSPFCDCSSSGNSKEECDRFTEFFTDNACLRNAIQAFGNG

Chain of EphA3-Fc (Mus musculus) (P29319 21-540): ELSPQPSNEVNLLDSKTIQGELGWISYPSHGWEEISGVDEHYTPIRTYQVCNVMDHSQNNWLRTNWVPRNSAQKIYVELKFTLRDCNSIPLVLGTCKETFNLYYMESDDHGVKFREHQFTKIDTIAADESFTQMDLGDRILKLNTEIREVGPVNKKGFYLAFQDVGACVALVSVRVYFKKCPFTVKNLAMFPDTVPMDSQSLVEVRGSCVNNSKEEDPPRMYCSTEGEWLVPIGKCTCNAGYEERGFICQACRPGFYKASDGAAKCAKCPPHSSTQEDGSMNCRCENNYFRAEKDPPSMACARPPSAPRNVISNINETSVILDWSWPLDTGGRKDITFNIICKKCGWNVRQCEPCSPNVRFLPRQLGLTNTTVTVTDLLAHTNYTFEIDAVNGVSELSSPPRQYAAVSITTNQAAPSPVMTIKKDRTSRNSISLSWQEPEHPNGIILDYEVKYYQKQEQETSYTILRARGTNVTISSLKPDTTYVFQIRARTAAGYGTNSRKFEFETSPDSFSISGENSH

**Q.** With ephrinA5 ECD (from UniProt O08543) as the molecule, how does the Kd (EphA3-Fc (Mus musculus)) read?
**A.** 8 nM

**Q.** With ephrinA5 ECD (from UniProt P52803) as the molecule, how does the Kd (EphA4 LBD (Homo sapiens)) read?
**A.** 360 nM

B1: mouse EphA4 ligand-binding domain with C-terminal human IgG1 hinge and Fc (mEphA4^LBD) (Fc fusion, mouse (Mus musculus), UniProt Q03137-1 29-210, looked up)
chain: NEVTLLDSRSVQGELGWIASPLEGGWEEVSIMDEKNTPIRTYQVCNVMEASQNNWLRTDWITREGAQRVYIEIKFTLRDCNSLPGVMGTCKETFNLYYYESDNDKERFIRESQFGKIDTIAADESFTQVDIGDRIMKLNTEIRDVGPLSKKGFYLAFQDVGACIALVSVRVFYKKCPLTVRN
notes: concentrations were calculated for the monomeric form. pMA152a vector; also called Mus musculus EphA4; source: Hi5 insect cells, purified (Protein-A Sepharose); not shown: Fc (human IgG1, with hinge region), C-terminal, kept
**Q.** Which Kd [1] does the source give for B1 here?
**A.** 180 ± 10 nM

B2: mature zebrafish glial cell-derived neurotrophic factor (zGDNF), N-terminal Flag tag (ligand, zebrafish (Danio rerio), UniProt Q98TU0 90-235, looked up)
chain: SSDVEPQMKRDRVRQKAAANTEKSGGRGRGERKRSRGRARSRDDRVKGQGRGCLLKEIHLNVTDLDLGYRTKEELIFRYCSGPCHDAETNYDKILNNLTHNKKLDKDTPSRTCCRPIAFDDDISFLDDSLEYHTLKKHSAKKCACV
notes: GDNF, zebrafish, mature zGDNF, residues 90-236 of NCBI NP_571807.1; Written as zGDNF2 (dimer) in the complexes; concentrations were calculated for the monomeric form; also called zGDNF2; source: Hi5 insect cells (baculovirus), secreted, purified as previously described [24]; not shown: Flag, N-terminal, kept
**Q.** With B2 as the molecule, how does the “stoichiometry N” value [2] read?
**A.** 1 zGDNF per zGFRα1^ECD (2:2, binary complex) and ~2 zGDNF per zGFRα1^ECD (ternary complex with zRET^ECD)

B3: zebrafish RET extracellular domain (zRET^ECD), Flag-His8-tagged (domain or fragment, zebrafish (Danio rerio), UniProt A8E7C6 22-626, looked up)
chain: GLYFPQRLYTENIYVGQQQGSPLLQVISMREFPTERPYFFLCSHRDAFTSWFHIDEASGVLYLNKTLEWSDFSSLRSGSVRSPKDLTLKVGVSSTPPMKVMCTILPTVEVKLSFINDTAPSCGQVELSTLCFPEKISNPHITENREPGALRQLRRFTHMSICPNYTISYGVVAGSSVPFAVDDSTSELVVTAQVDREEKEVYHLDIVCMVRTERNLEEVFRSLHVNIYDEDDNSPYVNGTDTEDVLVEFDRSEGTVFGTLFVYDRDTTPVYPTNQVQNKLVGTLMTNDSWIKNNFAIEHKFREEKAIFGNVRGTVHEYKLKLSQNLSVTEQRSFLLGYLVNDTTFPGPEGTVLLHFNVTVLPVPIRFSNVTYSFTVSQKATTYSQIGKVCVENCQKFKGIDVTYQLEIVDRNITAEAQSCYWAVSLAQNPNDNTGVLYVNDTKVLRRPECQELEYVVIAQEQQNKLQAKTQLTVSFQGEADSLKTDEPRFPACAEKRQRGDCEATRGLGAPTGRCQWRQGRDKGISKRYSTCSPNLGTCPDGYCDAIESKNISICPQDCSSEAIIGGYERDLYGIKAGHGTCYCFEGKCFCERDEPEDDICNDMC
notes: RET receptor tyrosine kinase, zebrafish, extracellular domain, residues 22-626 of NCBI NP_858048.2; thrombin cleavage site after the tags (pK503.9 vector); A mixture of monomer, dimer and some higher oligomers by native PAGE; not shown: Flag, N-terminal, kept; His8, N-terminal, kept
**Q.** Which “stoichiometry N” value [2] does the source give for B3 here?
**A.** ~1 zRET^ECD per zGFRα1^ECD (ternary complex with zGDNF)
